Assay results as given in the RNAGym collection of RNA variant scans (doi:10.1073/pnas.2313332121).

B1: TPR t1 (parent)
chain: GACCAAUCUGCCCUCAGAGCUCGAGAACAUCUUCGGAUGCAGAGGAGGCAGGCUUCGGUGGCGCGAUAGCGCCAACGUCCUCAACCUCCAAUGCAUCCCACCACAUGAUGAUGCCUGAAGAGCCUUGGUUUUUUG

Variants of: B1
Experiment: polymerase ribozyme fitness, log enrichment relative to wild type (log ratio); higher = more active; in vitro selection for triplet polymerase activity
Method in brief: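 Fitness is a logarithmic measure of how a genotype enriched relative to the wild type, with replicate averages weighted by inverse variance. The logarithm uses base 2, and enrichment came from Illumina sequencing of input and output libraries. Those libraries were PCR-built, transcribed mutants of each subunit of a heterodimeric triplet polymerase ribozyme, passed through one triplicate in vitro selection round that included frozen incubation at −7 °C, gel excision of extended constructs and streptavidin-bead capture. Genotypes were kept only if they had ≥10 input reads and ≥1 read per output.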

Variant	polymerase ribozyme fitness (log ratio)
G48A U59A C72G G120U G135A	-2.76
C49G G93A	-1.26
C49U G57U C79U C101A G128U	-4.04
G48U G61U G113A	-1.24
C49A C56U G110C	-5.23
A50G C73U C88U C124A	1.42
C49G C56A C94U A111G	-1.5
C49U A50C	-0.544
C49A G63U C94U A118G	-1.43
A50G C88A C104U G113U U129C	-4.06
C49A A50G G52U A118U	0.379
C49G G69C U78C	-2.8
C49G G69A A119U U133A	-3.06
G48U A83U C85U	-0.796
C49A G69C A83C A84U	-4.35
C49G G93A U133A	-0.83
A50C U106A G110A G127C	-3.34
A50C C86G G127U	-2.12
C49G U55C C76U A95C C98U	-2.41
C49A C72U	-1.37
C49A C72A	0.275

Variant	polymerase ribozyme fitness (log ratio)
C49A U116G	-2.39
C49G C89G	-2.16
C49G C53A G57A C85A C88A C115G	-3.29
A50U C79G G110A G122C	-6.04
A50C C53U G57A U96A G117A U132A	-5.61
G48U G52U G63C	-2.05
C49A C70U	-1.18
C49U C72G U78C	-1.33
C49A A121U	1.97
A50G G51A C72G C88U G110U	-5.05
C49U G69U	0.911
C49U G69C	-1.79
G48U C70G	-4.24
G48U C70A	-2.08
G48U C70U	-1.39
G48C C85A	-2.11
C49U G63U A95G U112A	-2.42
A50G G77U C86G	-1.1
C49U C73U G110A	-1.42
G48U C56G C72U C86G	-2.89
G48U C88A	-0.373

Variant	polymerase ribozyme fitness (log ratio)
G48U C88U	-1.36
G48U G63A C79G	-6.13
A50C U81C	0.175
C49U C73G A121C	0.163
G48U C82G U92G	-4.41
G48C G61C	-2.06
A50C C70G	-3.56
A50C C70U	-2.04
G48U G69A	-3.02
G48U G69U	-0.529
G48U C101U	-1.59
A50C C62U C94U	-0.553
A50U A111G U125A	-2.24
G48U C89U C124G G128A	-0.497
A50C G61C U109A	-6.96
G48U U54G U129A	-1.88
G48U U81G A91G G117U A119U	-7.47
G48C C62U U87G G110C U116A	-6.41
A50U G58A C88U	-2.22
G48U G57U C76G U78A G117A	-2.42
G48C C97G	-4.14

Variant	polymerase ribozyme fitness (log ratio)
G48C G61C C123G	-0.406
C49U A95G	-1.14
C49A A75U C85G	-1.4
A50U G60U	-1.4
G48U U112C A118U	0.638
G48U A50G G61A C89U	-1.81
C49A G77C C88A	-1.31
A50C C79G U125A	-1.78
C49U A50G G51A U54G G61A U112C	-0.096
G48U C114G G117C G120C	-6.82
G48U G61A C89A A119U	-2.48
G48C U59C A83C C114A	-2.11
C49A G57U G127U	-1.6
G48U C53U U92C A100U C101U C124A U131G	-2.57
C49A C85A	-1.43
G48U G61U C88U G110A	-1.73
C49G G110A	-1.31
G48U C49A C89G	-3.48
G48U A74U	-0.741
C49G C53G G69C C72U	-1.21
